Data: patent US20060057623

Target: HDAC1 (histone deacetylase 1), wild-type, Q13547
Sequence (Q13547 whole entry): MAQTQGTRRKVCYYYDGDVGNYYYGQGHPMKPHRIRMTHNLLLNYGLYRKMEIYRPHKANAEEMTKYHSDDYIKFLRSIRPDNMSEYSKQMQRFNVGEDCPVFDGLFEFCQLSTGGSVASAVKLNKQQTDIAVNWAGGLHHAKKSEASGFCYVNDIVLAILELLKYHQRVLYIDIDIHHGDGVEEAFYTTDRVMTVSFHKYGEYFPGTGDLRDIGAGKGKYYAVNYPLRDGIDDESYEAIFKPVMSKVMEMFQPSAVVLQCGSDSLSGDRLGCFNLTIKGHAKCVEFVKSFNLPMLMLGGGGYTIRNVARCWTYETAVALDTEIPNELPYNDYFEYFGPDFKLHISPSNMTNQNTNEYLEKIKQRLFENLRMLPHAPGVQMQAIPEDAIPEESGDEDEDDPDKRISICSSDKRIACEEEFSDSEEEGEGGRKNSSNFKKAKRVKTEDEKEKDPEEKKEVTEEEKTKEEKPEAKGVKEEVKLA

B1: SENP1 (Sentrin/SUMO-specific protease 1), wild-type (protein)
chain: MDDIADRMRMDAGEVTLVNHNSVFKTHLLPQTGFPEDQLSLSDQQILSSRQGHLDRSFTCSTRSAAYNPSYYSDNPSSDSFLGSGDLRTFGQSANGQWRNSTPSSSSSLQKSRNSRSLYLETRKTSSGLSNSFAGKSNHHCHVSAYEKSFPIKPVPSPSWSGSCRRSLLSPKKTQRRHVSTAEETVQEEEREIYRQLLQMVTGKQFTIAKPTTHFPLHLSRCLSSSKNTLKDSLFKNGNSCASQIIGSDTSSSGSASILTNQEQLSHSVYSLSSYTPDVAFGSKDSGTLHHPHHHHSVPHQPDNLAASNTQSEGSDSVILLKVKDSQTPTPSSTFFQAELWIKELTSVYDSRARERLRQIEEQKALALQLQNQRLQEREHSVHDSVELHLRVPLEKEIPVTVVQETQKKGHKLTDSEDEFPEITEEMEKEIKNVFRNGNQDEVLSEAFRLTITRKDIQTLNHLNWLNDEIINFYMNMLMERSKEKGLPSVHAFNTFFFTKLKTAGYQAVKRWTKKVDVFSVDILLVPIHLGVHWCLAVVDFRKKNITYYDSMGGINNEACRILLQYLKQESIDKKRKEFDTNGWQLFSKKSQEIPQQMNGSDCGMFACKYADCITKDRPINFTQQHMPYFRKRMVWEILHRKLL
Question: How did the “deacetylase activity of HDAC1 precipitates” value turn out when B1 was run?
Answer: The value was “In the presence of SENP1, the deacetylase activity of HDAC1 precipitates had a 70% reduction”.
